Test results from patent US20180051081A1 (published 2018).

B1: Clone 16 (pVxK7b-037-hum16-LC / pVxK7b-037-hum16-HC) (antibody, human IgG1, kappa, V domains shown)
VH: QVQLQESGPGLVKPSQTLSLTCTVSGYTFTNYYVFWVRQARGQRLEWIGDINPVNGDTNFNEKFKNRVTISADKSISTAYLQWSSLKASDTAMYYCARGGYTMDYWGQGTLVTVSS
VL: AIQLTQSPSSLSASVGDRVTITCRSSQSLVHSNGNTYLHWYQQKPGQAPRLLIYKVSYRFSGVPDRFSGSGSGTDFTLKISRVEAEDVGVYYCSQNTHVPRTFGQGTKVEIKR
B2: Clone 11 (pVxK7b-037-hum11-LC / pVxK7b-037-hum11-HC) (antibody, human IgG1, kappa, V domains shown)
VH: QVQLQESGPGLVKPGATVKISCKVSGYTFTNYYVFWVRQARGQRLEWIGDINPVNGDTNFNEKFKNRVTITADKSTSTAYMELSSLRSEDTAVYYCARGGYTMDYWGQGTLVTVSS
VL: EIVLTQSPATLSVSPGERATLSCRSSQSLVHSNGNTYLHWYQQKPGQAPRLLIYKVSYRFSGVPSRFSGSGSGTDFTFTISSLEAEDAATYYCSQNTHVPRTFGQGTKVEIKR
notes: also called Cl 11
B3: Clone 18 (pVxK7b-037-hum18-LC / pVxK7b-037-hum18-HC) (antibody, human IgG1, kappa, V domains shown)
VH: EVQLVQSGAEVKKPGESLRISCKGSGYTFTNYYVFWIRQSPSRGLEWLGDINPVNGDTNFNEKFKNRVTITADKSTSTAYMELSSLRSEDTAVYYCARGGYTMDYWGQGTLVTVSS
VL: B2 VL
B4: Clone 17 (pVxK7b-037-hum17-LC / pVxK7b-037-hum17-HC) (antibody, human IgG1, kappa)
light: AIQLTQSPSSLSASVGDRVTITCRSSQSLVHSNGNTYLHWYQQKPGQAPRLLIYKVSYRFSGVPDRFSGSGSGTDFTLKISRVEAEDVGVYYCSQNTHVPRTFGQGTKVEIKRTVAAPSVFIFPPSDEQLKSGTASVVCLLNNFYPREAKVQWKVDNALQSGNSQESVTEQDSKDSTYSLSSTLTLSKADYEKHKVYACEVTHQGLSSPVTKSFNRGEC
heavy: not shown

These binders were tested against T1, dog CD47 (dog, UniProt A0A8I3PM61 19-310) (assay: FACS, dog RBCs, supernatant 10 ng/ml).
T1 construct: also called CD47 on dog RBCs
T1 sequence: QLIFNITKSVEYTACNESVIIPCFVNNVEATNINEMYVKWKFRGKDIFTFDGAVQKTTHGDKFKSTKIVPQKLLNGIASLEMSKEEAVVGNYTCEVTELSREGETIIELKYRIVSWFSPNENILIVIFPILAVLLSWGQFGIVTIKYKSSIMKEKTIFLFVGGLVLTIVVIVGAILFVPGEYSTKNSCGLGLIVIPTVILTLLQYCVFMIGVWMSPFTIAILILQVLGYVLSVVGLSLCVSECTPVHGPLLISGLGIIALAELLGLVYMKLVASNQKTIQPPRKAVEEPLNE
Experimental: (§1) RBCs are incubated for 60 minutes on ice with tissue culture supernatants containing the secreted humanized antibodies at a concentration of 10 ng/ml in a solution of phosphate buffered saline, pH 7.2, 2.5 mM EDTA (PBS+E), or with various concentrations of purified antibodies. Cells are then washed with cold PBS+E, and incubated for an additional hour on ice with FITC labeled donkey anti-human antibody (Jackson Immuno Research Labs, West Grove, Pa.; Catalogue #709-096-149) in PBS+E. Cells are then washed with PBS+E, and antibody binding is analyzed using a BD FACSAria Cell Sorter (Becton Dickinson) or a C6 Accuri Flow Cytometer (Becton Dickinson). Antibody binding is quantitated by comparison of mean fluorescence values relative to that of chimeric antibody >VxP037-01LC (SEQ ID NO:7))/>VxP037-01HC (SEQ ID NO:57). The mean fluorescence value for each antibody is divided by the mean fluorescence value for the chimeric antibody.

| Binder | mean fluorescence relative to chimera |
| --- | --- |
| B1 | 1.1 |
| B2 | 0.8 |
| B3 | 1.5 |
| B4 | 1.3 |

Each binder was assayed against T2, pig CD47 (pig, UniProt Q9GKE8 19-303) (assay: FACS, pig RBCs, supernatant 10 ng/ml).
T2 construct: whole, on cells; also called CD47 on porcine RBCs
T2 sequence (looked up): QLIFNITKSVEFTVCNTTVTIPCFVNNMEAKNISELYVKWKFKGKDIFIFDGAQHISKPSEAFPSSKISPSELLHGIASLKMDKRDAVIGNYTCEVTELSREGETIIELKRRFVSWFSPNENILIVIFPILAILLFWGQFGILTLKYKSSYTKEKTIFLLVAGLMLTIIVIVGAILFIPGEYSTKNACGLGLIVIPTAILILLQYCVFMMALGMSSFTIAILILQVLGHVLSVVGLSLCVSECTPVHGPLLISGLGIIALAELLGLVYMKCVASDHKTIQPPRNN
Experimental: as §1

| Binder | mean fluorescence relative to chimera |
| --- | --- |
| B1 | 1.1 |
| B2 | 1.2 |
| B3 | 1.2 |
| B4 | 1.3 |

These binders were tested against T3, rat CD47 (rat, UniProt P97829 19-303) (assay: FACS, rat RBCs, supernatant 10 ng/ml).
T3 construct: whole, on cells; also called CD47 on rat RBCs
T3 sequence (looked up): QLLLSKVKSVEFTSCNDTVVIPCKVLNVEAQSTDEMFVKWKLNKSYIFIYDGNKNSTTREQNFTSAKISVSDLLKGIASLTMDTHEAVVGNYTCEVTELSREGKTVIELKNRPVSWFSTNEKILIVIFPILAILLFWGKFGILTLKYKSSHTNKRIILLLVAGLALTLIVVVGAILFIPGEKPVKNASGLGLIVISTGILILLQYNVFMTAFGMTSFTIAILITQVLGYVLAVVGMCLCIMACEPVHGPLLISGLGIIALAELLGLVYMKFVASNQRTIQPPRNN
Experimental: as §1

| Binder | mean fluorescence relative to chimera |
| --- | --- |
| B1 | 2.1 |
| B2 | 1.2 |
| B3 | 2.2 |
| B4 | 2.1 |

These binders were tested against T4, human CD47 (human, UniProt Q08722 19-323) (assay: FACS, human RBCs, supernatant 10 ng/ml).
T4 construct: whole, on cells; also called CD47 on human RBCs; CD47 on OV10 cells
T4 sequence (Q08722 19-323): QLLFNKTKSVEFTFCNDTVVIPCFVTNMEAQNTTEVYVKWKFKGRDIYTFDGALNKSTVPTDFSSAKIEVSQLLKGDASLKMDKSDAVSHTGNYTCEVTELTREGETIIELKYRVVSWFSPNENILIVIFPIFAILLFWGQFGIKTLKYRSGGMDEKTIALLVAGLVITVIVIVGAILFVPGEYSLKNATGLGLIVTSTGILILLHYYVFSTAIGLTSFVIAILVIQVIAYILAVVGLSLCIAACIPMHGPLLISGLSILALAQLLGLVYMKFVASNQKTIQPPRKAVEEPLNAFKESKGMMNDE
Experimental: as §1

| Binder | mean fluorescence relative to chimera |
| --- | --- |
| B1 | 0.9 |
| B2 | 0.8 |
| B3 | 1 |
| B4 | 0.8 |

What follows are binders tested against T5, mouse CD47 (mouse, UniProt Q61735 19-303) (assay: FACS, mouse RBCs, supernatant 10 ng/ml).
T5 construct: whole, on cells; also called CD47 on mouse RBCs; CD47 on 4T1 cells
T5 sequence (looked up): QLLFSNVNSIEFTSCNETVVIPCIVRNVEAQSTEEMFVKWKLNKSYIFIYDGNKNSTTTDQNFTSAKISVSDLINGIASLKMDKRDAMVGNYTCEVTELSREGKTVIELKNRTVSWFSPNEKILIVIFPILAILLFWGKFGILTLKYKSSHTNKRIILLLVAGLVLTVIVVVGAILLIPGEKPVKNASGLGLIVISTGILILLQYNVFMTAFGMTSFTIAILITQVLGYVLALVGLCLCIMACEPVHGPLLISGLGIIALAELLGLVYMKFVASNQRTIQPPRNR
Experimental: as §1

| Binder | mean fluorescence relative to chimera |
| --- | --- |
| B1 | 1 |
| B2 | 0.7 |
| B3 | 1.3 |
| B4 | 0.9 |
